Source: patent EP4713368A1 (dated 2026)

target: T1, human CD28 (human, UniProt P10747 19-152, limits assumed); assay: selection from yeast-presented heavy chain-only libraries (HCAb format)
T1 construct: also called Cluster of Differentiation 28; Tp44

Binder	binding result
Ab No. 70 (antibody, V domains shown, HCAb format (dimer of VH-hinge-CH2-CH3, no VL, CL or CH1)) VH: EVQLLESGGGLVQPGGSLRLSCAASGFTFSDYAMSWVRQAPGKERELVSIISASGGTTYYAGSVKGRFTISRDNSKNTLYLQMNSLRAEDTAVYYCAAHASGSYYLDASRDYDADYWGQGTQVTVSS	binds
Ab No. 78 (antibody, V domains shown, HCAb format (dimer of VH-hinge-CH2-CH3, no VL, CL or CH1)) VH: EVQLLESGGGLVQPGGSLRLSCAASGFTFDTYSMNWFRQAPGKERELVSAISGVGSTYYADSVKGRFTISRDNSKNTLYLQMNSLRAEDTAVYYCHARGFRLGYDFDYYWGQGTQVTVSS	binds
Ab No. 83 (antibody, V domains shown, HCAb format (dimer of VH-hinge-CH2-CH3, no VL, CL or CH1)) VH: EVQLLESGGGLVQPGGSLRLSCAASGFTFSDHSMNWYRQAPGKERELVSAISGSGGSTYYADSVKGRFTISRDNSKNTLYLQMNSLRAEDTAVYYCNARRYQSSGGDVWGQGTQVTVSS	binds

target: T1, human CD28; assay: selection from yeast-presented synthetic human antibody libraries

Binder	binding result
Ab No. 8 (antibody, V domains shown, IgG format) VH: QVQLVQSGAEVKKPGSSVKVSCKASGGTFSSYAISWVRQAPGQGLEWMGGIIPISGTANYAQKFQGRVTITADESTSTAYMELSSLRSEDTAVYYCAKTRTVAYPGSDWGQGTLVTVSS VL: not shown	binds
Ab No. 9 (antibody, V domains shown, IgG format) VH: QVQLVQSGAEVKKPGSSVKVSCKASGGTFSSYAISWVRQAPGQGLEWMGGIIPISGTANYAQKFQGRVTITADESTSTAYMELSSLRSEDTAVYYCALGRWLTEAQWGQGTLVTVSS VL: not shown	binds

target: T1, human CD28; assay: affinity maturation of CD28-binding antibodies (Example 10: Discovery of Additional Antibodies that Bind to CD28)

Binder	binding result
Ab No. 21a (antibody, V domains shown, derived from Ab No. 21 by modifying VH CDRs, VL unchanged; IgG format) VH: QVQLVQSGAEVKKPGSSVKVSCKASGGTFNAYAISWVRQAPGQGLEWMGGIIPISGTAAYAQKFQGRVTITADESTSTAYMELSSLRSEDTAVYYCTRDLGFGAIRDTWGQGTLVTVSS VL: EIVLTQSPATLSLSPGERATLSCRASQSVSSYLAWFQQKPGQAPRLLIYDASNRATGIPARFSGSGSGTDFTLTISSLEPEDFAVYYCQQSLNLPITFGGGTKVEIK	binds
Ab No. 21b (antibody, V domains shown, derived from Ab No. 21 by modifying VH CDRs, VL unchanged; IgG format) VH: QVQLVQSGAEVKKPGSSVKVSCKASGGTFNAYAISWVRQAPGQGLEWMGGIIPISGTANYAQKFQGRVTITADESTSTAYMELSSLRSEDTAVYYCTRDLGFGAIRDTWGQGTLVTVSS VL: EIVLTQSPATLSLSPGERATLSCRASQSVSSYLAWFQQKPGQAPRLLIYDASNRATGIPARFSGSGSGTDFTLTISSLEPEDFAVYYCQQSLNLPITFGGGTKVEIK	binds
Ab No. 21c (antibody, V domains shown, derived from Ab No. 21 by modifying VH CDRs, VL unchanged; IgG format) VH: QVQLVQSGAEVKKPGSSVKVSCKASGGTFSGYAISWVRQAPGQGLEWMGGIIPISATANYAQKFQGRVTITADESTSTAYMELSSLRSEDTAVYYCTRDLGFGAIRDTWGQGTLVTVSS VL: EIVLTQSPATLSLSPGERATLSCRASQSVSSYLAWFQQKPGQAPRLLIYDASNRATGIPARFSGSGSGTDFTLTISSLEPEDFAVYYCQQSLNLPITFGGGTKVEIK	binds
Ab No. 21d (antibody, V domains shown, derived from Ab No. 21 by modifying VH CDRs, VL unchanged; IgG format) VH: QVQLVQSGAEVKKPGSSVKVSCKASGGTFSTYAISWVRQAPGQGLEWMGGIIPISGTANYAQKFQGRVTITADESTSTAYMELSSLRSEDTAVYYCTRDLGFGAIRDTWGQGTLVTVSS VL: EIVLTQSPATLSLSPGERATLSCRASQSVSSYLAWFQQKPGQAPRLLIYDASNRATGIPARFSGSGSGTDFTLTISSLEPEDFAVYYCQQSLNLPITFGGGTKVEIK	binds
Ab No. 21e (antibody, V domains shown, derived from Ab No. 21 by modifying VH CDRs, VL unchanged; IgG format) VH: QVQLVQSGAEVKKPGSSVKVSCKASGGTFDNYAISWVRQAPGQGLEWMGGIIPISGTAIYAQKFQGRVTITADESTSTAYMELSSLRSEDTAVYYCTRDLGFGAIRDTWGQGTLVTVSS VL: EIVLTQSPATLSLSPGERATLSCRASQSVSSYLAWFQQKPGQAPRLLIYDASNRATGIPARFSGSGSGTDFTLTISSLEPEDFAVYYCQQSLNLPITFGGGTKVEIK	binds
Ab No. 21f (antibody, V domains shown, derived from Ab No. 21 by modifying VH CDRs, VL unchanged; IgG format) VH: QVQLVQSGAEVKKPGSSVKVSCKASGGTFGGYAISWVRQAPGQGLEWMGGIIPISATAFYAQKFQGRVTITADESTSTAYMELSSLRSEDTAVYYCTRDLGFGAIRDTWGQGTLVTVSS VL: EIVLTQSPATLSLSPGERATLSCRASQSVSSYLAWFQQKPGQAPRLLIYDASNRATGIPARFSGSGSGTDFTLTISSLEPEDFAVYYCQQSLNLPITFGGGTKVEIK	binds
Ab No. 28a (antibody, V domains shown, derived from Ab No. 28 by modifying VH CDRs, VL unchanged; IgG format) VH: EVQLLESGGGLVQPGGSLRLSCAASGFTFGSYAMHWVRQAPGKGLEWVSAISGSGQSTDYADSVKGRFTISRDNSKNTLYLQMNSLRAEDTAVYYCVRGYRLVGILTGSHFDYWGQGTLVTVSS VL: DIQMTQSPSTLSASVGDRVTITCRASQSIGSWLAWYQQKPGKAPKLLIYKASSLESGVPSRFSGSGSGTEFTLTISSLQPDDFATYYCQQYNILPPTFGGGTKVEIK	binds
Ab No. 28b (antibody, V domains shown, derived from Ab No. 28 by modifying VH CDRs, VL unchanged; IgG format) VH: EVQLLESGGGLVQPGGSLRLSCAASGFTFSKYQMSWVRQAPGKGLEWVSAISGTGESTDYADSVKGRFTISRDNSKNTLYLQMNSLRAEDTAVYYCVRGYRLVGILTGSHFDYWGQGTLVTVSS VL: DIQMTQSPSTLSASVGDRVTITCRASQSIGSWLAWYQQKPGKAPKLLIYKASSLESGVPSRFSGSGSGTEFTLTISSLQPDDFATYYCQQYNILPPTFGGGTKVEIK	binds
Ab No. 28c (antibody, V domains shown, derived from Ab No. 28 by modifying VH CDRs, VL unchanged; IgG format) VH: EVQLLESGGGLVQPGGSLRLSCAASGFPFSAYGMSWVRQAPGKGLEWVSAISGSGGNTDYADSVKGRFTISRDNSKNTLYLQMNSLRAEDTAVYYCVRGYRLVGILTGSHFDYWGQGTLVTVSS VL: DIQMTQSPSTLSASVGDRVTITCRASQSIGSWLAWYQQKPGKAPKLLIYKASSLESGVPSRFSGSGSGTEFTLTISSLQPDDFATYYCQQYNILPPTFGGGTKVEIK	binds
Ab No. 28d (antibody, V domains shown, derived from Ab No. 28 by modifying VH CDRs, VL unchanged; IgG format) VH: EVQLLESGGGLVQPGGSLRLSCAASGFTFDAYAMSWVRQAPGKGLEWVSAISGSGVRTYYADSVKGRFTISRDNSKNTLYLQMNSLRAEDTAVYYCVRGYRLVGILTGSHFDYWGQGTLVTVSS VL: DIQMTQSPSTLSASVGDRVTITCRASQSIGSWLAWYQQKPGKAPKLLIYKASSLESGVPSRFSGSGSGTEFTLTISSLQPDDFATYYCQQYNILPPTFGGGTKVEIK	binds
Ab No. 28e (antibody, V domains shown, derived from Ab No. 28 by modifying VH CDRs, VL unchanged; IgG format) VH: EVQLLESGGGLVQPGGSLRLSCAASGFTFGRYAMSWVRQAPGKGLEWVSAISGDAGSTFYADSVKGRFTISRDNSKNTLYLQMNSLRAEDTAVYYCVRGYRLVGILTGSHFDYWGQGTLVTVSS VL: DIQMTQSPSTLSASVGDRVTITCRASQSIGSWLAWYQQKPGKAPKLLIYKASSLESGVPSRFSGSGSGTEFTLTISSLQPDDFATYYCQQYNILPPTFGGGTKVEIK	binds
Ab No. 28f (antibody, V domains shown, derived from Ab No. 28 by modifying VH CDRs, VL unchanged; IgG format) VH: EVQLLESGGGLVQPGGSLRLSCAASGFTFSTYGMNWVRQAPGKGLEWVSAISGSGLNTYYADSVKGRFTISRDNSKNTLYLQMNSLRAEDTAVYYCVRGYRLVGILTGSHFDYWGQGTLVTVSS VL: DIQMTQSPSTLSASVGDRVTITCRASQSIGSWLAWYQQKPGKAPKLLIYKASSLESGVPSRFSGSGSGTEFTLTISSLQPDDFATYYCQQYNILPPTFGGGTKVEIK	binds

target: T1, human CD28; assay: selection from yeast-presented libraries of heavy chains and CD3-binding light chains

Binder	binding result
Ab No. 61 (antibody, V domains shown, IgG format) VH: EVQLLESGGGLVQPGGSLRLSCAASGFTFDHYAMSWVRQAPGKGLEWVSAISASGDETYYADSVKGRFTISRDNSKNTLYLQMNSLRAEDTAVYYCARDSPHMATYKSYYYYGMDVWGQGTTVTVSS VL: DIVMTQSPDSLAVSLGERATINCKSSQSLLNARTGKNYLAWYQQKPGQPPKLLIYWASTRESGVPDRFSGSGSGTDFTLTISSLQAEDVAVYYCKQSYSLRTFGGGTKVEIK	binds
Ab No. 60 (antibody, V domains shown, IgG format; also called ADI-83102) VH: EVQLLESGGGLVQPGGSLRLSCAASGFTFDNYAMSWVRQAPGKGLEWVSAISADAGQTYYADSVKGRFTISRDNSKNTLYLQMNSLRAEDTAVYYCARDSPHMATYKSYYYYGMDVWGQGTTVTVSS VL: DIVMTQSPDSLAVSLGERATINCKSSQSLLNARTGKNYLAWYQQKPGQPPKLLIYWASTRESGVPDRFSGSGSGTDFTLTISSLQAEDVAVYYCKQSYSLRTFGGGTKVEIK	binds
Ab No. 68 (antibody, V domains shown, IgG format) VH: EVQLVESGGGLVQPGGSLRLSCAASGFTFQSYAMNWVRQAPGKGLEWVSYISDDASTIYYADSVKGRFTISRDNAKNSLYLQMNSLRAEDTAVYYCAREVHRGWGAFDIWGQGTMVTVSS VL: DIVMTQSPDSLAVSLGERATINCKSSQSLLNARTGKNYLAWYQQKPGQPPKLLIYWASTRESGVPDRFSGSGSGTDFTLTISSLQAEDVAVYYCKQSYSLRTFGGGTKVEIK	binds
